According to PMC9468479:

What was measured:
[1] = target: Wuhan-Hu-1 SARS-CoV-2 receptor binding domain (2019-nCoV spike RBD) (SARS-CoV-2 (Wuhan-Hu-1)) (UniProt P0DTC2); assay: SPR
[2] = target: SARS-CoV-2 wild-type Wuhan-Hu-1 spike protein (2019-nCoV spike protein) (SARS-CoV-2 (Wuhan-Hu-1)) (UniProt P0DTC2); assay: SPR

Q: Which results are given for “Urtica dioica agglutinin (UDA) (natural protein)”?
A: Kd [1]: 0.022 µM; Kd [2]: 0.007 µM
